According to paper PMC5256923, “RNA and DNA Targeting by a Reconstituted Thermus thermophilus Type III-A CRISPR-Cas System” (PLoS ONE, 2017):
Where “and” joins values, the source holds several entries; their conditions need not be identical. Equal entries are not always repeated. Each block holds one molecule with its values, some of them ahead of it.

Experiments:
[1] = target: T. thermophilus Csm5, His10 tag cleaved off with HRV 3C protease (T. thermophilus) (UniProt Q53W18); test: native MS; native nanoESI-MS, positive ion mode, about 5 uM of the co-expressed and co-purified TthCsm complex (with crRNA) exchanged into 1 M ammonium acetate, 5% glycerol
[2] = target: T1, T. thermophilus Csm5, His10 tag cleaved off with HRV 3C protease (T. thermophilus, UniProt Q53W18 1-397); test: as above; settings: both partners purified
T1 construct: Csm5 of Thermus thermophilus (locus TTHB151), codon-optimized gene; Same construct as m1 after 3C cleavage; also called TTHB151; source: E. coli BL21(λDE3), co-expressed with the other Csm subunits, Cas6A and crRNA 4.5; co-purified in the TthCsm complex (Ni-NTA, 3C cleavage, Ni-NTA, Superose 6)
T1 sequence (looked up): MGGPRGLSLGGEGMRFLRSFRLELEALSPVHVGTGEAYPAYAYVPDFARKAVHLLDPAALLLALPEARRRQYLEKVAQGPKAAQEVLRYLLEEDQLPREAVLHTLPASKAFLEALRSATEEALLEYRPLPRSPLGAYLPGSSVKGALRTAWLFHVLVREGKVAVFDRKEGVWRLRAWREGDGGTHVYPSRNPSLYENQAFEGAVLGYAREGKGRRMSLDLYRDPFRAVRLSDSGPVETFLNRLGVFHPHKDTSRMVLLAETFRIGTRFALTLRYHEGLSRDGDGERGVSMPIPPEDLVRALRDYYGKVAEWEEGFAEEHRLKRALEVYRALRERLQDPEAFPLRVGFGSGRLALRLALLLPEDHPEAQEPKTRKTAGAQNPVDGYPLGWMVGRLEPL

stoichiometry N [1]: 3 and 4
Molecule: T. thermophilus Csm2 (natural protein)

stoichiometry N [1]: 6 and 4
Molecule: T. thermophilus Csm3 (natural protein)

stoichiometry N [1]: 1
Molecule: T. thermophilus Csm4 (from UniProt Q53W19 1-805) (natural protein)

stoichiometry N [2]: 1
B1: T. thermophilus Cas10/Csm1 (natural protein, UniProt Q53W19 1-805, looked up)
chain: MLGDGLSVALAGLLHDVGKLYSRARWGERDDQVPDRTHTAYTAHFVREHAGLFRGAGLDPDWLARTASRHHEGWRDRPQYRPETPEEWCVALADTYASKEREEGEGGGSPPEVPLSPPFRRLLLGGEEGREGGYSPVGAGGRVGLEAGGLYPEERPNVSKDVYKRLLERLEGRLEEMARFSLGKEALVLNLALALQETLSLVPSDTQSEPDVSLYDHLRLTAAIAHALWLFHGGSPSAQNLRQDGEKFLLVVGDMGGIQGHIYRIAGAEAGVGGIAKRLRARSLEVSLAAEAMALGLLWRLGLTSLNRILGAGGKFYLLLPNTEEARAALEGTREAWGRWALKRGGSLVPHLAWVAFRGQDFRDFAALLKRLHEALAREKLRPFAFLASTGGVLGAPLRPCAACGLEPARRDEPGSLCPDCEREAALGARLPRSDRVGFFLEEAPRPYLDFPGLKVGLGGPLEGAFHLFRARLDFAPWPDPSEAKPLLGHLPRVEHALKAKGWSLEAYRAWAEEEGLLEDEEPHPEKVLTFAELAALSEGAPYLGALMLDADRMGEAFATGFRREGRDLATPSRLAALSRTLEVFFTTEVLTLLEEPRRYRERLGWDDLEAQRKEARYPLLYSVYSGGDDLFLLGPWDALLDFALDLERLYRLFTRHPRLTLSGGFLLVPPSLPVPELARLLGEAEKRAKAEGRERLFLFGQAVPWETLRGLRAWAEGLRQDLRAERVSRAQVYRWLLLWRRFSPLEDPGERMRYKPLLAYALRRVRERDEEAWKRYLKLLDHQDPAWAYLPVWVQWALYRERRV
notes: Cas10/Csm1 of Thermus thermophilus (locus TTHB147), codon-optimized gene; also called TTHB147; source: E. coli BL21(λDE3), co-expressed with the other Csm subunits, Cas6A and crRNA 4.5; in lysate, and co-purified in the TthCsm complex (Ni-NTA, Superose 6)
